Columns and labels:
[1] = target: high molecular weight gingipain R (HRgpA) (Porphyromonas gingivalis); test: enzyme inhibition kinetics
[2] = target: low molecular weight gingipain R (RgpB) (Porphyromonas gingivalis) (UniProt P95493); test: enzyme inhibition kinetics
[3] = target: high molecular weight gingipain R (HRgpA) (Porphyromonas gingivalis)

Row | Substance | Ki [2] [nM] | further results
1 | PD_(RgpA), recombinant N-terminal prodomain of RgpA (from UniProt P28784 24-227) (domain or fragment) |  | Ki [1]: 0.85 nM
2 | PD_(RgpB) R66A (domain or fragment) | 4.9 | 
3 | PD_(RgpB) R66K (domain or fragment) | 31 | 
4 | PD_(RgpB) R102A (domain or fragment) | > 5000 | 
5 | PD_(RgpB) R102E (domain or fragment) | > 5000 | 
6 | PD_(RgpB) R102K (domain or fragment) | 45.6 | 
7 | PD_(RgpB) R102Q (domain or fragment) | > 5000 | 
8 | PD_(RgpB) R159K (domain or fragment) | 7.7 | 
9 | PD_(RgpB), recombinant N-terminal prodomain of RgpB (from UniProt P95493 25-229) (domain or fragment) |  | IC50 of inhibition of amidolytic activity (L-BAPNA), 10 nM enzyme [3]: 12.6 nM; IC50 of inhibition of aminopeptidase activity (H-Arg-AMC), 10 nM enzyme [3]: 4.9 nM; IC50 of inhibition of proteolytic activity (Azocoll), 10 nM enzyme [3]: 5.8 nM; Ki [1]: 5.3 nM
